Data published in patent US20170267783A1 (published 2017).

Molecular target: extracellular matrix (ECM; BD Matrigel)
Experiment: ECL on Matrigel-coated plate, signal divided by that of MRAH-G1d/MRAL-k0

Binder | ECM binding ratio (standard = 1) (ratio to standard antibody)
TR01H067-E2702GsKsc/GCH054-E2704sEpsc/L0212-k0 (bispecific antibody, human IgG4 S228P, kappa, N297A) heavy 1: QVQLVESGGGLVQPGRSLRLSCAASGFTFSNAWMHWVRQAPGKGLEWVAQIKDKSQNYATYYAESVKGRFTISRDDSKNSLYLQMNSLKTEDTAVYYCRYVHYAASYGVDAWGQGTTVTVSSASTKGPSVFPLAPCSRSTSESTAALGCLVKDYFPEPVTVSWNSGALTSGVHTFPAVLQSSGLYSLSSVVTVPSSSLGTKTYTCNVDHKPSNTKVDKRVESKYGPPCPPCPAPEFRGGPKVFLFPPKPKDTLMISRTPEVTCVVVDVSQEDPEVQFNWYVDGVEVHNAKTKPREEQFASTYRVVSVLTVLHQDWLNGKEYKCKVSNKGLPSSIEKTISKAKGQPREPQVYTLPPSQKEMTKNQVSLTCLVKGFYPSDIAVEWESNGQPENNYKTTPPVLDSDGSFFLYSKLTVDKSRWQEGNVFSCSVMHEALHNRYTQKSLSLSP heavy 2: QVQLVQSGAEVKKPGASVTVSCKASGYTFTDYEMHWIRQPPGEGLEWIGAIDGETPDTAYSEKFKGRVTLTADKSTSTAYMELSSLTSEDTAVYYCTRFYSYTYWGQGTLVTVSSASTKGPSVFPLAPCSRSTSESTAALGCLVKDYFPEPVTVSWNSGALTSGVHTFPAVLQSSGLYSLSSVVTVPSSSLGTQTYTCNVDHKPSNTKVDKRVESKYGPPCPPCPAPEFRGGPKVFLFPPKPKDTLMISRTPEVTCVVVDVSQEDPEVQFNWYVDGVEVHNAKTKPREEQFASTYRVVSVLTVLHQDWLNGKEYKCKVSNKGLPSSIEKTISKAKGQPREPQVYTLPPSQEEMTKNQVSLTCLVKGFYPSDIAVEWESNGQPENNYKTTPPVLDSDGSFFLYSKLTVDKSRWQEGNVFSCSVMHEALHNHYTQESLSLSP light: DIVMTQSPLSLPVTPGEPASISCRPSQSPVHSNRNTYLHWYQQKPGQAPRLLIYKVSNRFSGVPDRFSGSGSGTDFTLKISRVEAEDVGVYYCYQGTQVPYTFGQGTKLEIKRTVAAPSVFIFPPSDEQLKSGTASVVCLLNNFYPREAKVQWKVDNALQSGNSQESVTEQDSKDSTYSLSSTLTLSKADYEKHKVYACEVTHQGLSSPVTKSFNRGEC | 3.3
TR01H113-E2702GsKsc/GCH065-E2704sEpsc/L0011-k0 (bispecific antibody, human IgG4 S228P, kappa, N297A) heavy 1: QVQLVESGGGVVQPGGSLRLSCAASGFTFSNAWMHWVRQAPGKGLEWVAQIKDKSQNYATYVAESVKGRFTISRADSKNSIYLQMNSLKTEDTAVYYCRYVHYAAGYGVDIWGQGTTVTVSSASTKGPSVFPLAPCSRSTSESTAALGCLVKDYFPEPVTVSWNSGALTSGVHTFPAVLQSSGLYSLSSVVTVPSSSLGTKTYTCNVDHKPSNTKVDKRVESKYGPPCPPCPAPEFRGGPKVFLFPPKPKDTLMISRTPEVTCVVVDVSQEDPEVQFNWYVDGVEVHNAKTKPREEQFASTYRVVSVLTVLHQDWLNGKEYKCKVSNKGLPSSIEKTISKAKGQPREPQVYTLPPSQKEMTKNQVSLTCLVKGFYPSDIAVEWESNGQPENNYKTTPPVLDSDGSFFLYSKLTVDKSRWQEGNVFSCSVMHEALHNRYTQKSLSLSP heavy 2: QVQLVQSGAEVKKPGASVTVSCKASGYTFTDYEMHWIRQPPGEGLEWIGAIDGPTPDTAYSEKFKGRVTLTADKSTSTAYMELSSLTSEDTAVYYCTRFYSYTYWGQGTLVTVSSASTKGPSVFPLAPCSRSTSESTAALGCLVKDYFPEPVTVSWNSGALTSGVHTFPAVLQSSGLYSLSSVVTVPSSSLGTQTYTCNVDHKPSNTKVDKRVESKYGPPCPPCPAPEFRGGPKVFLFPPKPKDTLMISRTPEVTCVVVDVSQEDPEVQFNWYVDGVEVHNAKTKPREEQFASTYRVVSVLTVLHQDWLNGKEYKCKVSNKGLPSSIEKTISKAKGQPREPQVYTLPPSQEEMTKNQVSLTCLVKGFYPSDIAVEWESNGQPENNYKTTPPVLDSDGSFFLYSKLTVDKSRWQEGNVFSCSVMHEALHNHYTQESLSLSP light: DIVMTQSPLSLPVTPGEPASISCRSSQPLVHSNRNTYLHWYQQKPGQAPRLLIYKVSNRFSGVPDRFSGSGSGTDFTLKISRVEAEDVGVYYCGQGTQVPYTFGQGTKLEIKRTVAAPSVFIFPPSDEQLKSGTASVVCLLNNFYPREAKVQWKVDNALQSGNSQESVTEQDSKDSTYSLSSTLTLSKADYEKHKVYACEVTHQGLSSPVTKSFNRGEC | 2.5
TR01H082-E2702GsKsc/GCH065-E2704sEpsc/L0011-k0 (bispecific antibody, human IgG4 S228P, kappa, N297A) heavy 1: QVQLVESGGGLVQPGRSLRLSCAASGFTFSNAWMHWVRQAPGKGLEWVAQIKDKSQNYATYYAESVKGRFTISRDDSKNSLYLQMNSLKTEDTAVYYCRYVHYAAGYGVDAWGQGTTVTVSSASTKGPSVFPLAPCSRSTSESTAALGCLVKDYFPEPVTVSWNSGALTSGVHTFPAVLQSSGLYSLSSVVTVPSSSLGTKTYTCNVDHKPSNTKVDKRVESKYGPPCPPCPAPEFRGGPKVFLFPPKPKDTLMISRTPEVTCVVVDVSQEDPEVQFNWYVDGVEVHNAKTKPREEQFASTYRVVSVLTVLHQDWLNGKEYKCKVSNKGLPSSIEKTISKAKGQPREPQVYTLPPSQKEMTKNQVSLTCLVKGFYPSDIAVEWESNGQPENNYKTTPPVLDSDGSFFLYSKLTVDKSRWQEGNVFSCSVMHEALHNRYTQKSLSLSP heavy 2: QVQLVQSGAEVKKPGASVTVSCKASGYTFTDYEMHWIRQPPGEGLEWIGAIDGPTPDTAYSEKFKGRVTLTADKSTSTAYMELSSLTSEDTAVYYCTRFYSYTYWGQGTLVTVSSASTKGPSVFPLAPCSRSTSESTAALGCLVKDYFPEPVTVSWNSGALTSGVHTFPAVLQSSGLYSLSSVVTVPSSSLGTQTYTCNVDHKPSNTKVDKRVESKYGPPCPPCPAPEFRGGPKVFLFPPKPKDTLMISRTPEVTCVVVDVSQEDPEVQFNWYVDGVEVHNAKTKPREEQFASTYRVVSVLTVLHQDWLNGKEYKCKVSNKGLPSSIEKTISKAKGQPREPQVYTLPPSQEEMTKNQVSLTCLVKGFYPSDIAVEWESNGQPENNYKTTPPVLDSDGSFFLYSKLTVDKSRWQEGNVFSCSVMHEALHNHYTQESLSLSP light: DIVMTQSPLSLPVTPGEPASISCRSSQPLVHSNRNTYLHWYQQKPGQAPRLLIYKVSNRFSGVPDRFSGSGSGTDFTLKISRVEAEDVGVYYCGQGTQVPYTFGQGTKLEIKRTVAAPSVFIFPPSDEQLKSGTASVVCLLNNFYPREAKVQWKVDNALQSGNSQESVTEQDSKDSTYSLSSTLTLSKADYEKHKVYACEVTHQGLSSPVTKSFNRGEC | 1.7
TR01H113-E2702GsKsc/GCH094-E2704sEpsc/L0011-k0 (bispecific antibody, human IgG4 S228P, kappa, N297A) heavy 1: QVQLVESGGGVVQPGGSLRLSCAASGFTFSNAWMHWVRQAPGKGLEWVAQIKDKSQNYATYVAESVKGRFTISRADSKNSIYLQMNSLKTEDTAVYYCRYVHYAAGYGVDIWGQGTTVTVSSASTKGPSVFPLAPCSRSTSESTAALGCLVKDYFPEPVTVSWNSGALTSGVHTFPAVLQSSGLYSLSSVVTVPSSSLGTKTYTCNVDHKPSNTKVDKRVESKYGPPCPPCPAPEFRGGPKVFLFPPKPKDTLMISRTPEVTCVVVDVSQEDPEVQFNWYVDGVEVHNAKTKPREEQFASTYRVVSVLTVLHQDWLNGKEYKCKVSNKGLPSSIEKTISKAKGQPREPQVYTLPPSQKEMTKNQVSLTCLVKGFYPSDIAVEWESNGQPENNYKTTPPVLDSDGSFFLYSKLTVDKSRWQEGNVFSCSVMHEALHNRYTQKSLSLSP heavy 2: QVQLVQSGAEVKKPGASVTVSCKASGYTFTDYEMHWVRQAPGEGLEWMGAIDGETPDTAYSEKFKGRVTLTADKSTSTAYMELSSLTSEDTAVYYCTRFYSYTYWGQGTLVTVSSASTKGPSVFPLAPCSRSTSESTAALGCLVKDYFPEPVTVSWNSGALTSGVHTFPAVLQSSGLYSLSSVVTVPSSSLGTQTYTCNVDHKPSNTKVDKRVESKYGPPCPPCPAPEFRGGPKVFLFPPKPKDTLMISRTPEVTCVVVDVSQEDPEVQFNWYVDGVEVHNAKTKPREEQFASTYRVVSVLTVLHQDWLNGKEYKCKVSNKGLPSSIEKTISKAKGQPREPQVYTLPPSQEEMTKNQVSLTCLVKGFYPSDIAVEWESNGQPENNYKTTPPVLDSDGSFFLYSKLTVDKSRWQEGNVFSCSVMHEALHNHYTQESLSLSP light: DIVMTQSPLSLPVTPGEPASISCRSSQPLVHSNRNTYLHWYQQKPGQAPRLLIYKVSNRFSGVPDRFSGSGSGTDFTLKISRVEAEDVGVYYCGQGTQVPYTFGQGTKLEIKRTVAAPSVFIFPPSDEQLKSGTASVVCLLNNFYPREAKVQWKVDNALQSGNSQESVTEQDSKDSTYSLSSTLTLSKADYEKHKVYACEVTHQGLSSPVTKSFNRGEC | 1.6
TR01H084-E2702GsKsc/GCH065-E2704sEpsc/L0011-k0 (bispecific antibody, human IgG4 S228P, kappa, N297A) heavy 1: QVQLVESGGGVVQPGGSLRLSCAASGFTFSNAWMHWVRQAPGKGLEWVAQIKDKSQNYATYYAESVKGRFTISRADSKNSIYLQMNSLKTEDTAVYYCRYVHYAAGYGVDIWGQGTTVTVSSASTKGPSVFPLAPCSRSTSESTAALGCLVKDYFPEPVTVSWNSGALTSGVHTFPAVLQSSGLYSLSSVVTVPSSSLGTKTYTCNVDHKPSNTKVDKRVESKYGPPCPPCPAPEFRGGPKVFLFPPKPKDTLMISRTPEVTCVVVDVSQEDPEVQFNWYVDGVEVHNAKTKPREEQFASTYRVVSVLTVLHQDWLNGKEYKCKVSNKGLPSSIEKTISKAKGQPREPQVYTLPPSQKEMTKNQVSLTCLVKGFYPSDIAVEWESNGQPENNYKTTPPVLDSDGSFFLYSKLTVDKSRWQEGNVFSCSVMHEALHNRYTQKSLSLSP heavy 2: QVQLVQSGAEVKKPGASVTVSCKASGYTFTDYEMHWIRQPPGEGLEWIGAIDGPTPDTAYSEKFKGRVTLTADKSTSTAYMELSSLTSEDTAVYYCTRFYSYTYWGQGTLVTVSSASTKGPSVFPLAPCSRSTSESTAALGCLVKDYFPEPVTVSWNSGALTSGVHTFPAVLQSSGLYSLSSVVTVPSSSLGTQTYTCNVDHKPSNTKVDKRVESKYGPPCPPCPAPEFRGGPKVFLFPPKPKDTLMISRTPEVTCVVVDVSQEDPEVQFNWYVDGVEVHNAKTKPREEQFASTYRVVSVLTVLHQDWLNGKEYKCKVSNKGLPSSIEKTISKAKGQPREPQVYTLPPSQEEMTKNQVSLTCLVKGFYPSDIAVEWESNGQPENNYKTTPPVLDSDGSFFLYSKLTVDKSRWQEGNVFSCSVMHEALHNHYTQESLSLSP light: DIVMTQSPLSLPVTPGEPASISCRSSQPLVHSNRNTYLHWYQQKPGQAPRLLIYKVSNRFSGVPDRFSGSGSGTDFTLKISRVEAEDVGVYYCGQGTQVPYTFGQGTKLEIKRTVAAPSVFIFPPSDEQLKSGTASVVCLLNNFYPREAKVQWKVDNALQSGNSQESVTEQDSKDSTYSLSSTLTLSKADYEKHKVYACEVTHQGLSSPVTKSFNRGEC | 1.3
